Results on 1 molecule are retold here after paper PMC3578163 (Chemical research in toxicology, 2013).

Assay in all cases: fluorescence polarization
Background: In fluorescence polarisation assays a small probe gives low polarisation when free and higher when bound to something large.

Data set [1] has as its target T1, DNA polymerase iota catalytic core (hpol ι26-446) (Homo sapiens, UniProt Q9UNA4 26-446).
T1 sequence: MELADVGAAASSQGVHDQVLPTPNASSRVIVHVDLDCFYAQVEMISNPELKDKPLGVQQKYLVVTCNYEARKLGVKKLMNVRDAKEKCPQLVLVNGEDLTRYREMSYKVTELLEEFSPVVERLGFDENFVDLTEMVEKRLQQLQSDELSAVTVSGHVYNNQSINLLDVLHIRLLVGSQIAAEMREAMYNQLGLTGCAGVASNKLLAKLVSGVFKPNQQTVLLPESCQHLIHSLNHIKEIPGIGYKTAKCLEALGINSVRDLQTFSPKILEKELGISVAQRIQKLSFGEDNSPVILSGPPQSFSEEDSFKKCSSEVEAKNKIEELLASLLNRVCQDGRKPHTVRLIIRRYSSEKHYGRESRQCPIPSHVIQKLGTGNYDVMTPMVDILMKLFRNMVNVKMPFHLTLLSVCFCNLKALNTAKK

Data set [2] has as its target T2, DNA polymerase kappa catalytic core (hpol κ19-526) (Homo sapiens, UniProt Q9UBT6 19-526).
T2 sequence: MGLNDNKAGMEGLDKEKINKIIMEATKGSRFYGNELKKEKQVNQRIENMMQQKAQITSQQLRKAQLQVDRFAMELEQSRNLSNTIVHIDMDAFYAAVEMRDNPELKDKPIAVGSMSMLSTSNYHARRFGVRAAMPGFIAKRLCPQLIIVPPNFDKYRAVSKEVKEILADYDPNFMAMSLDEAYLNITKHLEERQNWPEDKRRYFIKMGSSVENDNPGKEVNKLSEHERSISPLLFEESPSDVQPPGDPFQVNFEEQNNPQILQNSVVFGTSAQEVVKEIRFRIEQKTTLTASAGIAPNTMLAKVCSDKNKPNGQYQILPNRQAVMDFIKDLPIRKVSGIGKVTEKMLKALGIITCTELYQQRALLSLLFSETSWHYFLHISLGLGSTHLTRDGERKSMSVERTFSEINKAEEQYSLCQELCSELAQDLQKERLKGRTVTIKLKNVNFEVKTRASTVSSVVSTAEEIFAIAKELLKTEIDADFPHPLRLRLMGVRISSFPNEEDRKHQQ

Data set [3] addresses T1, DNA polymerase iota catalytic core …. This is another data set of the same source.
The target in data set [4] is T2, DNA polymerase kappa catalytic core …. This is another data set of the same source.
For data set [5], the target named is T1, DNA polymerase iota catalytic core …. The source holds these as a separate data set.
Data set [6] has the same target. This is another data set of the same source.
For data set [7] the target is unchanged. This is another data set of the same source.
Data set [8] concerns the target T2, DNA polymerase kappa catalytic core …. The source holds these as a separate data set.

In general, Kd refers to a measure of binding affinity in units of concentration.

Where two headings read alike, the source gives them in different places.

B1: FAM-13/18mer primer-template DNA (dsDNA)
DNA 1: TTTGGGGGAAGGATTC
DNA 2: TCACGGAATCCTTCCCCC
B1: the Kd was determined as 5.5 ± 0.7 nM in data set [1]; 13.7 ± 5.1 nM in data set [2]; 6.3 ± 0.9 nM in data set [3]; 19 ± 5.6 nM in data set [4]; 8.8 ± 1.3 nM in data set [5]; 9.1 ± 1.6 nM in data set [6]. Besides, the Kd was 5.3 ± 0.7 nM in data set [7] and 11.1 ± 5.1 nM in data set [8].
